From patent US20230272011A1 (AVACTA LIFE SCIENCES, published 2023)

Assays:
human serum albumin [1] = molecular target: T1, human serum albumin (human, UniProt P02768 25-609); assay: binding ELISA on coated HSA, pH 7.4
T1 construct: mature; Bought protein; biotinylated in the Octet and HTRF assays; also called HSA; HuSA
Description: After saturation with 5% PBS Casein pH 7.5, plates were washed and a dilution of AFFIMER® polypeptides or controls were incubated for 90 minutes. Plates were then washed, and a biotinylated polyclonal antibody anti-cystatin A (R&D Systems) was added for 1 hour. Plates were washed and AFFIMER® polypeptides were detected using streptavidin-HRP. After a last washing step, TMB was added for the development of the experiment and the plates were read at 450 nm.

cynomolgus serum albumin [2] = molecular target: T2, cynomolgus serum albumin (cynomolgus); assay: Octet biolayer interferometry, pH 7.4
T2 construct: also called CSA; cyno serum albumin
Description: (§1) Biotinylated antigen was captured onto SA sensors at 1 μg/ml for 600 seconds in a buffer comprising PBS-T (0.01% Tween 20)+1% casein at either pH 6.0 or 7.4. Association was carried out for 300 seconds and dissociation for 600 seconds, and regeneration was performed using 10 mM glycine pH 1.5 (GE Healthcare) for 3×5 seconds. All steps were carried out at 1000 rpm and 25° C. Purified AFFIMER® polypeptide in two-fold serial dilutions was analyzed at a starting concentration of approximately 10× K_{D value}. Kinetics analyses were carried out using the Octet data analysis software, subtracting the reference sensor (loaded with antigen), aligning the Y-axis to baseline, and using inter-step correction to align association to dissociation. Savitzky-Golay filtering was applied and the data processed. Analysis of the data was carried out with a 1:1 model, global fit, Rₘₐₓ unlinked by sensor.
(§2) AFFIMER® polypeptides were incubated with AcTEV for 1 hour at 30° C. as recommend by the manufacturer (Invitrogen) and removal of cleaved His tag by binding NiNTA resin (Generon) and collecting the cleaved protein flow through. […] Pharmacokinetic profile of IV-injected His tag cleaved AFFIMER® protein compared to C-terminally His-tagged AFFIMER® protein was evaluated.

human serum albumin [3] = molecular target: T1, human serum albumin; assay: Octet biolayer interferometry, pH 7.4
Description: as §1, §2

mouse serum albumin [4] = molecular target: T3, mouse serum albumin (mouse, UniProt P07724 25-608); assay: Octet biolayer interferometry, pH 7.4
T3 construct: also called MSA
Description: as §1, §2

cynomolgus serum albumin [5] = molecular target: T2, cynomolgus serum albumin; assay: Octet biolayer interferometry, pH 6.0
Description: as §1, §2

human serum albumin [6] = molecular target: T1, human serum albumin; assay: Octet biolayer interferometry, pH 6.0
Description: as §1, §2

mouse serum albumin [7] = molecular target: T3, mouse serum albumin; assay: Octet biolayer interferometry, pH 6.0
Description: as §1, §2

human serum albumin [8] = molecular target: T1, human serum albumin; assay: SPR (Biacore), immobilised HSA, Affimer analyte
Description: Affinities for mouse, human, and cynomolgus serum were also measured at pH 7.4 for four (4) AFFIMER® binders using surface plasmon resonance (SPR) (FIG. 5, Table 5). […] A concentration titration of AFFIMER® monomers was run as analyte at a flow rate of 30 μl/min or 60 μl/min. Fc2-1, Fc3-1 and Fc4-1 kinetic data was blank subtracted and fit to a 1:1 Langmuir binding model (BIAcore Evalution software; GE) to calculate KD values. […]

cynomolgus serum albumin [9] = molecular target: T2, cynomolgus serum albumin; assay: BLI (Octet), biotinylated albumin on SA sensor, pH 6.0
In short: (§3)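 Biotinylated albumin was loaded on streptavidin sensors at 1 μg/ml for 600 s in PBS-T (0.01% Tween 20) + 1% casein at pH 6.0 or 7.4, 25° C, 1000 rpm. Kinetics came from a 1:1 global fit with reference-sensor subtraction.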

human serum albumin [10] = molecular target: T1, human serum albumin; assay: as above
In short: as §3

mouse serum albumin [11] = molecular target: T3, mouse serum albumin; assay: as above
In short: as §3

cynomolgus serum albumin [12] = molecular target: T2, cynomolgus serum albumin; assay: BLI (Octet), biotinylated albumin on SA sensor, pH 7.4
In short: as §3

human serum albumin [13] = molecular target: T1, human serum albumin; assay: as above
In short: as §3

mouse serum albumin [14] = molecular target: T3, mouse serum albumin; assay: as above
In short: as §3

human serum albumin [15] = molecular target: T1, human serum albumin; assay: SPR (Biacore) binding response to HSA at pH 7.4, Affimer at 50 nM
Text: Final clones were sequence-verified, produced from E. coli, and affinity purified as described in Example 3.

human serum albumin [16] = molecular target: T1, human serum albumin; assay: binding ELISA on coated albumin, pH 6.0, panel 'HSA Binding at pH 6.0'
cynomolgus serum albumin [17] = molecular target: T2, cynomolgus serum albumin; assay: Octet biolayer interferometry, biotinylated albumin on SA sensors, pH 6.0
In short: as §3

human serum albumin [18] = molecular target: T1, human serum albumin; assay: as above
In short: as §3

mouse serum albumin [19] = molecular target: T3, mouse serum albumin; assay: as above
In short: as §3

canine serum albumin = canine serum albumin (canine, UniProt P49822 25-608); assay: binding ELISA on coated albumin, pH 6.0, panel 'Canine SA Binding at pH 6.0'
Sequence of canine serum albumin (P49822 25-608 limits assumed): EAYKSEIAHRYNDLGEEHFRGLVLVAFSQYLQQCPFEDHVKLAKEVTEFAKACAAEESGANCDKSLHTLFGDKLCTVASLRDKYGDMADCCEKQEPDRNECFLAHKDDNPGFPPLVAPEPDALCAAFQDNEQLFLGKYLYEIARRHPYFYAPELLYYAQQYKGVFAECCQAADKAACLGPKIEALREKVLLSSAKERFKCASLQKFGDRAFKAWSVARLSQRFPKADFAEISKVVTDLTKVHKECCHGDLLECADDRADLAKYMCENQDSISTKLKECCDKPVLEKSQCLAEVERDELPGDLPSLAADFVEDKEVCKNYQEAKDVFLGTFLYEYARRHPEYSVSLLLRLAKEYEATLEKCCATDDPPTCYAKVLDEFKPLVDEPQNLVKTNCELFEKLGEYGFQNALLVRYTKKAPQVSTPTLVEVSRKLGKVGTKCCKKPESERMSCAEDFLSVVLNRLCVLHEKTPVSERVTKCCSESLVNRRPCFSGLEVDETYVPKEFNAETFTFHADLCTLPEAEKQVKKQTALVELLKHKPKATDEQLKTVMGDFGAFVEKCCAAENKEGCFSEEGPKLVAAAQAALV

T3 sequence (P07724 25-608 limits assumed): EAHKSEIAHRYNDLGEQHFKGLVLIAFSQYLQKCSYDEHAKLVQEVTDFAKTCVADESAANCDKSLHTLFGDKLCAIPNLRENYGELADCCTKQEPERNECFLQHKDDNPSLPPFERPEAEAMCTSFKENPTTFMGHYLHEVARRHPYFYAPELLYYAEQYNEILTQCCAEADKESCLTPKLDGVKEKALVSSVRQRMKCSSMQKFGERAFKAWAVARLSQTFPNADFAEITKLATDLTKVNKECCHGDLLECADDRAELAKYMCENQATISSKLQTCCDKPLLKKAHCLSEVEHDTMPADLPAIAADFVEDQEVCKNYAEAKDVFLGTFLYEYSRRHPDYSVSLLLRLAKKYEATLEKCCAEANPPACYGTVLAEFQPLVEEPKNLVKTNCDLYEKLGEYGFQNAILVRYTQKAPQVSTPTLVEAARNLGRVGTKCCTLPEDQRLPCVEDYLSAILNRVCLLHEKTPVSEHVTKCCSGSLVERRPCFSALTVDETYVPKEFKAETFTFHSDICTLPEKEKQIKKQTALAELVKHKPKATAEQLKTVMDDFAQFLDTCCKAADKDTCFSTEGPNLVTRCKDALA
T2 sequence (A2V9Z4 25-608): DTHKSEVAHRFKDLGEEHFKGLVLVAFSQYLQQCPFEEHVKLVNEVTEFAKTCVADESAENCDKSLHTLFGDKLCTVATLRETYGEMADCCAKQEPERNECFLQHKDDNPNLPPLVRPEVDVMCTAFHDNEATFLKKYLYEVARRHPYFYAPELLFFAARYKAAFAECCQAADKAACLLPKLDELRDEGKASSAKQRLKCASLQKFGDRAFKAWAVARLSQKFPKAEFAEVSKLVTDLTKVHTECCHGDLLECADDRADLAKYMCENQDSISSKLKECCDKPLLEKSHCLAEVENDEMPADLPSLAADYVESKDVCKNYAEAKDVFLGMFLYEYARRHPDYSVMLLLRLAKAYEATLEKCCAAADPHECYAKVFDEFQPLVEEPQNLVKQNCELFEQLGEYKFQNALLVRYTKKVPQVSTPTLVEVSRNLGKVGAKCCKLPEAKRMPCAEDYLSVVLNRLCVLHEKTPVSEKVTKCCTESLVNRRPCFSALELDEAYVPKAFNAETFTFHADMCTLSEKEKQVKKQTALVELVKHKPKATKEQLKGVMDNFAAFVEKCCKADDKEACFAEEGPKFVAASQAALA

B1: HSA-41 (designed binder)
chain: MIPRGLSEAKPATPEIQEIVDKVKPQLEEKTNETYGKLEAVQYKTQVLANFFQRRWPGSTNYYIKVRAGDNKYMHLKVFNGPWKFRNTDRGADRVLTGYQVDKNKDDELTGFHHHHHH
notes: also called HSA-41 parent; HSA-41 AH parent
B1 gave an EC50 (human serum albumin [1]) of 0.04 nM, a Kd (cynomolgus serum albumin [2]) of 209 nM and a Kd (human serum albumin [3]) of 7.74 nM. It also gave a Kd (mouse serum albumin [4]) of 82 nM, a Kd (cynomolgus serum albumin [5]) of 220 nM and a Kd (human serum albumin [6]) of 11.9 nM. It also gave a Kd (mouse serum albumin [7]) of 50.5 nM, a Kd (human serum albumin [8]) of 5.13 nM and a koff (human serum albumin [8]) of 0.00435 s⁻¹. For the same binder, the kon (human serum albumin [8]) was 848000 M⁻¹ s⁻¹, the Kd (cynomolgus serum albumin [9]) was 105 nM and the Kd (human serum albumin [10]) was 7.1 nM. The Kd (mouse serum albumin [11]) was 95.2 nM, the Kd (cynomolgus serum albumin [12]) was 71.5 nM and the Kd (human serum albumin [13]) was 5.2 nM. For the same binder, the Kd (mouse serum albumin [14]) was 47.9 nM, the “binding response” value (human serum albumin [15]) was 36.8 and the “EC50 (read off the curve)” value (human serum albumin [16]) was ~0.04 nM. For the same binder, the koff (cynomolgus serum albumin [17]) was 0.00717 s⁻¹, the kon (cynomolgus serum albumin [17]) was 68100 M⁻¹ s⁻¹ and the koff (human serum albumin [18]) was 0.00198 s⁻¹. It also gave a kon (human serum albumin [18]) of 278000 M⁻¹ s⁻¹, a koff (mouse serum albumin [19]) of 0.0447 s⁻¹ and a kon (mouse serum albumin [19]) of 470000 M⁻¹ s⁻¹. For the same binder, the “EC50 (read off the curve)” value (canine serum albumin) was ~2 nM.
